Data on three molecules can be found in patent US20220025022A1 (published 2022).

As a reminder, the Kd is the free concentration of one partner at which half of the binding sites on the other are occupied at equilibrium, for simple one-to-one binding. A word on the koff: it is the first-order rate constant of dissociation. As usually defined, the kon is a measure of how fast the partners come together.

The target in assay [1] is T1, MBP-CfaE-N (recombinant N-terminal adhesin domain of CfaE fused to an MBP tag) (enterotoxigenic Escherichia coli (ETEC), UniProt P25734 24-205, Biotinylated for SPR; FITC or Alexa dye labelled for flow cytometry; sites not stated.).
T1 construct: Used plain (ELISA), biotinylated (SPR) and FITC/Alexa-labelled (flow cytometry); GenBank M55661 is printed for the nucleic acid; also called recombinant N-terminal truncated CfaE protein; N-terminal CfaE protein
T1 sequence: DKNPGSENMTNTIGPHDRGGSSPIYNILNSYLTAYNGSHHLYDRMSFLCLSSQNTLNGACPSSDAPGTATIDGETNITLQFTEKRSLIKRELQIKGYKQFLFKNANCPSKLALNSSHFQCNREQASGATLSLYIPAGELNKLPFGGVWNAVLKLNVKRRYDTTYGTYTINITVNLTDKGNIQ
Briefly: SPR (Biacore T200), CfaE on CM5 chip, VHH injected, 25 C, 1:1 model. Background: SPR reads the build-up and loss of mass on a sensor chip optically.

Assay [2] has as its target CS5 on ETEC strain #204348 (enterotoxigenic Escherichia coli (ETEC)). Briefly: cell-based or functional assay.
In assay [3] the target is CS21 on ETEC strain #100171 (enterotoxigenic Escherichia coli (ETEC)). Briefly: cell-based or functional assay.
Assay [4] has as its target CS6 on ETEC strain #100001 (enterotoxigenic Escherichia coli (ETEC)). Briefly: cell-based or functional assay.
Assay [5] has as its target CS2 on ETEC strain #201546 (enterotoxigenic Escherichia coli (ETEC)). The assay is described as follows: cell-based or functional assay.
Assay [6] has as its target CS14 on ETEC strain #400599 (enterotoxigenic Escherichia coli (ETEC)). Briefly: cell-based or functional assay.
The target in the next assay is CS17 on ETEC strain (enterotoxigenic Escherichia coli (ETEC)). Briefly: cell-based or functional assay.
Assay [7] deals with T2, CFA/I fimbrial protein (with adhesin subunit CfaE) on ETEC strain H10407 (enterotoxigenic Escherichia coli (ETEC), UniProt P25734 1-360).
T2 sequence (looked up): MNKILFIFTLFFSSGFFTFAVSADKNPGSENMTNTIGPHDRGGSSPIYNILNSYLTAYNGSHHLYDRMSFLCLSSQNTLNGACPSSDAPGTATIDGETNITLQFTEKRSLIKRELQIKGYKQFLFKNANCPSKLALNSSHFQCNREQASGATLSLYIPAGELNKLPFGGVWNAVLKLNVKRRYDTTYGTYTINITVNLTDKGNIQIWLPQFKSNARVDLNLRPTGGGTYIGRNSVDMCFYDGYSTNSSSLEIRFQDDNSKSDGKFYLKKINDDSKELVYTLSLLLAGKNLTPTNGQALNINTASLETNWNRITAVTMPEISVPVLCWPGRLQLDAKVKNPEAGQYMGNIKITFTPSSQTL
Briefly: cell-based or functional assay.

For a further assay, the target named is CS4 on ETEC strain (enterotoxigenic Escherichia coli (ETEC)). The assay is described as follows: cell-based or functional assay.
Assay [8] deals with CS3 on ETEC strain #100483 (enterotoxigenic Escherichia coli (ETEC)). Briefly: cell-based or functional assay.
Assay [9] has as its target CS1 on ETEC strain #200145 (enterotoxigenic Escherichia coli (ETEC)). Briefly: cell-based or functional assay.
Assay [10] concerns the target CS19 on ETEC strain #204648 (enterotoxigenic Escherichia coli (ETEC)). Briefly: cell-based or functional assay.
Assay [11] concerns the target T3, recombinant CS2 (N-terminal adhesin domain of CotD, MBP-tagged) (enterotoxigenic Escherichia coli (ETEC)).
T3 construct: also called CotD, CS2; colonization factor antigen CS2
T3 chain: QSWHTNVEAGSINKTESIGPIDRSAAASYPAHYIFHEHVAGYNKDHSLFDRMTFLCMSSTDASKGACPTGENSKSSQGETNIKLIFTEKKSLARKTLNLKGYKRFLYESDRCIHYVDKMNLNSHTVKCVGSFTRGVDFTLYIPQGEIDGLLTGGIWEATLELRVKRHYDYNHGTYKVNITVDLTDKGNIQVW
The assay is described as follows: ELISA on coated recombinant antigen. On the technique in general: In an ELISA, binding on a coated surface is turned into a signal by an enzyme label.

B1: VHH antibody 1D7 (monomeric) (VHH)
VHH: EVQLVESGGGLVQAGGSLTLSCAASERTFSYYVMAWFRQAPGKEREFVAGISMSGDSTKYADSVKGRFTISRDNAENTGYLQMNGLKPEDTAVYYCAADRDIRGNFRSWGRGTQVTVSS
notes: also called clone 1D7
For the molecule B1, in [1], the Kd was found to be 17.7 nM. For the same molecule, the koff in assay [1] came to 0.0311 s⁻¹. Moreover, in assay [1], the kon was found to be 1.75e+06 M⁻¹ s⁻¹. Besides, the “MRHA IC100” value in assay [2] is 3.12 µg/mL; in assay [3] it was 25 µg/mL; in assay [4] it was 12.5 µg/mL; in assay [5], 50 µg/mL; in assay [6] it was 100 µg/mL; with CS17 on ETEC strain it was 6.25 µg/mL. Further, the “MRHA IC100” value in assay [7] was found to be 100 µg/mL; in the assay with CS4 on ETEC strain, 200 µg/mL; in [8], 50 µg/mL; in assay [9], 50 µg/mL; in assay [10] it was 100 µg/mL. For the same molecule, in [11], the binding result was “no binding”.

B2: VHH antibody 2R215 (monomeric) (VHH)
VHH: QVQLQESGGGLVQAGGSLRLSCAASGNIFQDAEMGWYRQAPGKEREFVATIAYGGNTNYADSVKGRFTISRDNAKNTVYLQMNSLKPEDTAVYYCAVYTGVYYDRTTGGYVAFEYWGQGTQVTVSS
Regarding B2, the “MRHA IC100” value in [2] came out at 6.25 µg/mL; in assay [3], 25 µg/mL; in assay [4], 25 µg/mL; in assay [5], 6.25 µg/mL; in [6], 200 µg/mL; in the assay with CS17 on ETEC strain, 6.25 µg/mL. The “MRHA IC100” value in [7] turned out to be 25 µg/mL; with CS4 on ETEC strain, 100 µg/mL; in assay [8] it was 100 µg/mL; in [9] it was 200 µg/mL; in assay [10] it was 200 µg/mL.

B3: VHH antibody 2R23 (monomeric) (VHH)
VHH: QVQLQESGGGLVQAGGSLRLSCAASGYIFWSYGYMGWYRQAPGKERELVATISRGGTTNYADSVKGRFTISRDNAKNTVYLQMNSLKPEDTAVYYCAAGRYAFGYFKYWGQGTQVTVSS
notes: also called clone 2R23
With B3, the Kd in assay [1] turned out to be 9.06 nM. In assay [1], the off-rate constant (koff) came to 64.6 s⁻¹. Further, the kon in [1] turned out to be 7.13e+09 M⁻¹ s⁻¹. The “MRHA IC100” value in assay [2] turned out to be 12.5 µg/mL; in assay [3] it was 25 µg/mL; in [4] it was 12.5 µg/mL; in assay [5] it was 200 µg/mL; in [6], 25 µg/mL; in the assay with CS17 on ETEC strain, 6.25 µg/mL. The “MRHA IC100” value is 50 µg/mL in [7]; 25 µg/mL with CS4 on ETEC strain; 100 µg/mL in assay [8]; 200 µg/mL in assay [9]; 200 µg/mL in [10].
